According to patent publication US20100215631A1, “ANTI-INFLAMMATORY COMPOSITION COMPRISING GLYCINE AND LACTOFERRIN AND THE USE THEREOF” (priority 2006, published 2010):

Assays:
Type in all cases: in vivo
[1] = test system: Balb/C mice; assay: Zymosan-induced ear swelling in an inflammatory mouse model (Example 1); details: daily gavage 0.1 mg lactoferrin and/or 50 mg glycine, versus non-supplemented mice
Description: Balb/C mice (8 weeks of age, Charles River, Maastricht, The Netherlands) were randomly assigned two control and three test groups and supplemented daily for three days with 0.1 mg lactoferrin (DMV, Veghel, The Netherlands), 50 mg glycine (Sigma, Zwijndrecht, The Netherlands) or a combination of both components (test groups 3, 4 and 5 respectively) or vehicle (control groups 1 and 2) was administered by gavage. At day two of the supplementation ear thickness was measured using a micrometer (Mitutoyo Digimatic, Veenendaal, The Netherlands) Subsequently 25 μl 0.5% zymosan (Sigma) in PBS (group 2-5) or vehicle (group 1) was injected subcutaneously in both ears. Ear thickness was measured 3, 6 and 24 hours (example 1) after injection after which the animals were sacrificed.
In mice injected in the ear with zymosan, lactoferrin (LF) and glycine (Gly) supplemented mice show a highest decrease in ear swelling when compared to non-supplemented mice, see Table 1. A clear synergistic effect of LF and Gly is observed.

[2] = test system: Balb/C mice; assay: Dose response of lactoferrin in zymosan-induced ear swelling mouse model (Example 3)
[3] = test system: TNF-α producing cells; assay: Ex-vivo ELISpot of TNF-α producing spleen cells from supplemented mice with zymosan-induced ear inflammation (Example 2); details: 1 μg/ml LPS, after three days of oral supplementation
Description: The spleen was removed and pushed through a cell strainer. Red blood cell lysis was performed in 5 ml of could lysis buffer (4.15 g NH4Cl, 0.5 g KHCO3 and 18.6 mg Na2EDTA in 1 liter water at pH 7,3) for 5 minutes. Cells were washed twice in could RPMI (Invitrogen, Merelbeke, Belgium) and after centrifugation diluted to a concentration of 1.10^7 cells/ml. TNF-α producing cells were detected by ELISpot assay in the absence or presence of 1 μg/ml lipopolysaccharide (Sigma) (example 2).
Spleen cells were collected from mice with a zymosan-induced inflammation in the ear after three days of oral supplementation with water (=control), lactoferrin (LF), glycine or a combination of LF and glycine. The number of TNF-α producing cells was determined using an ELISpot assay. LF and glycine inhibit the LPS stimulated number of TNF producing cells by 92% and 97% respectively (back to not zymosan treated control levels). The combination of glycine and lactoferrin inhibited the number of TNF-α positive cells 50% below the […] injected control. This unexpected high rate of inhibition makes the combination of glycine with lactoferrin an excellent choice for the treatment of inflammatory diseases.

B1: lactoferrin (protein, UniProt P24627 20-708, looked up)
Lactotransferrin: APRKNVRWCTISQPEWFKCRRWQWRMKKLGAPSITCVRRAFALECIRAIAEKKADAVTLDGGMVFEAGRDPYKLRPVAAEIYGTKESPQTHYYAVAVVKKGSNFQLDQLQGRKSCHTGLGRSAGWIIPMGILRPYLSWTESLEPLQGAVAKFFSASCVPCIDRQAYPNLCQLCKGEGENQCACSSREPYFGYSGAFKCLQDGAGDVAFVKETTVFENLPEKADRDQYELLCLNNSRAPVDAFKECHLAQVPSHAVVARSVDGKEDLIWKLLSKAQEKFGKNKSRSFQLFGSPPGQRDLLFKDSALGFLRIPSKVDSALYLGSRYLTTLKNLRETAEEVKARYTRVVWCAVGPEEQKKCQQWSQQSGQNVTCATASTTDDCIVLVLKGEADALNLDGGYIYTAGKCGLVPVLAENRKSSKHSSLDCVLRPTEGYLAVAVVKKANEGLTWNSLKDKKSCHTAVDRTAGWNIPMGLIVNQTGSCAFDEFFSQSCAPGADPKSRLCALCAGDDQGLDKCVPNSKEKYYGYTGAFRCLAEDVGDVAFVKNDTVWENTNGESTADWAKNLNREDFRLLCLDGTRKPVTEAQSCHLAVAPNHAVVSRSDRAAHVKQVLLHQQALFGKNGKNCPDKFCLFKSETKNLLFNDNTECLAKLGGRPTYEEYLGTEYVTAIANLKKCSTSPLLEACAFLTR
notes: globular multifunctional protein of the transferrin family (DMV, Veghel)
[1]; 3 hrs after zymosan injection in ears
  Decrease in ear swelling: 39 ± 12
[1]; 6 hrs after zymosan injection in ears
  Decrease in ear swelling: 53 ± 17
[2]; 0.1 mg LF daily by gavage, time 1 hr
  swelling: 78
[2]; 0.1 mg LF daily by gavage, time 2 hr
  swelling: 108
[2]; 0.1 mg LF daily by gavage, time 4 hr
  swelling: 109
[2]; 1 mg LF daily by gavage, time 1 hr
  swelling: 73
[2]; 1 mg LF daily by gavage, time 2 hr
  swelling: 105
[2]; 1 mg LF daily by gavage, time 4 hr
  swelling: 121
[2]; 5 mg LF daily by gavage, time 1 hr
  swelling: 99
[2]; 5 mg LF daily by gavage, time 2 hr
  swelling: 153
[2]; 5 mg LF daily by gavage, time 4 hr
  swelling: 204
[2]; mouse, daily gavage, higher than 0
  Optimal dose: less than 5 mg
[3]
  Inhibition of the LPS stimulated number of TNF producing cells: 92%
